# Test results published in the DeepSol protein solubility set.
# Assay: soluble on expression in E. coli; label from the status in PepcDB or PDB records
row,Sequence,soluble on expression in E. coli
1,MPPAGQDDLDFLKYAMESYVADVNADIGKTTIVFTLREKAGALAETLKLFQAHDVNLSHIESRPSKTHEGCYEVLVEFAEAEDHRKIEGVIEHFQQKAEKKVLVQDWNTKNKQNKDSVPWFPQKINDIDQFANRILSYGAELDADHPGFKDMTYRERRKFFADIAFNFKHGDKIPTITYTDEEIATWRTVYNELTVMYPKNACQEFNYIFPLLQQNCGFGPDRIPQLQDVSDFLKDCTGYTIRPVAGLLSSRDFLAGLAFRVFHSTQYIRHHSAPKYTPEPDICHELLGHVPLFADVEFAQFSQEIGLASLGAPDDVIEKLATLYWFTIEFGICQQDGEKKAYGAGLLSSFGELQYALSDKPEVVDFDPAVCCVTKYPITEYQPKYFLAESFASAKNKLKSWAATINRPFQIRYNAYTQRVEILDKVAALQRLARDIRSDISTLEEALGKVNNLKMK,not soluble
2,MSLHLARVDRQWPRPLQPLGNTCSMMLIKQFPDISLNDTLFVFALEAEAGDVFTEVNTVFTGIGKVNAAIALTKAIATRRPKLIVNLGSAGSQRHGKGEIVCCNRFVQRDMDVTALGFARYETPLSDTPVVLEHGAAIPGLAVETCGSGDSFEINHGDAPYDVVDMEAYVLALIARGEGIPFVCLKYISDDAGSEAAGDWAVQVHLAAEAFKRVLFSQAEGHHHHHH,soluble
3,MSVEPNHYLEITRSHVHQIYRELETSGKVITVDLVRKPYYDVDEDNKTLLQVFREHNEQSRKLIGKDFISKTVQRYETTTRYLEEFIKKEYQLSDIALNNLEANFISKFDAFLKIEKGCAQNSAITRLKNLKKIIRIALENDWIKKDPFAYYRFKLKETYPEFLTMDEIKIILAKEFTIKRVEQVRDVFIFCSYTGLAFSDVKDLSPEHLLKDNKGELWIKIFLSFHSSVFSSKNLHRLNTSLAKSMIQIKF,not soluble
4,MFCTLAGYRWLNSGSLLRRLSQRAVRRLPTAPLCHLHNGATESAASNGALRIVDEKVAYRRYATVFERTVQYPDGRHVTYDILGQPAVQSASVLVFPFDTQSKTCYVIREYCPGPNRVLYGFPAGMVETKHESLEAAARAELSEEAHLRCAQLIDLTAQAAVWERSFEVPNTASDAENCLRGFFADKYSRNVCKMYLALNPEPDGHPGSMDAEELIEQVGAVRVPQLEAWLWSGQMTMPHMLLAMCALTYLRQRGMLT,not soluble
5,MNERERVLAIKGGDHQAFIDLYNEYWSQVYDFSRLYIATIADAEEIVQDVFVKLWESRHLLKEDENIKGFLFIVTRNIVFNKNKKRVNENLFKTSVLVAYGNEGYYNSTTVEEDYCASQLKIFIDRLINSLPEQQRKCFLLSREESLSYKEIAERLGISQKTVEIHMGKALKFLKDKVKRGWEILLSLLSF,not soluble
6,MEEEFSMFIMSMSNSMSSLWPAPIEMDSIDEGTENVANIASRWSTCCNIIRLHIEQMIGCEVDVAVAKSTDLGVSMTRGNSDSKLEPISTLLSTISKTIESNGEANAEFAIREIEKMNKSCETEYKIKKFHWFIDVEMFLNIKLALLDREFPPNLTVYVIGELKTLYDDYEAAKEVATNFERSSVNLRFLLCPADLKELNREIIAEKRQKMSEKEIICRFGSDKFKIKLFKKQKIGSHVTLIDSISFLGFLPEIELCRQGFLGSKRSNKLKMDITTDSKLGNKILFSLSQYLLNETKRPQTALFSFSSKPKLRGFCIMVAYESENDETSITLIQLKASLGKCLWKTLKFVNQSGEHSRPLPDDSYEQIAPIERKQLKRRLSRIERIASSVEEKRAQFEAFAREYDALDARDAFMKFTSTWQTDQGLLTAPTPFEDDNNNK,not soluble
7,MFAGCATYAGLNFDQLFGPQLVRERTASVETPQADFFQREVKPIVDNRCVVCHACYDAPCQLKLSSVEGIDRGASKALVYEGTRLTAAAPTRLFEDAETTQEWRDAGFHPVLNERDQSMAANLEAGLIARLLQQKERHPLPDQVQLEGFDFSIDREQTCPTIEEYEQYEKDNPNWGMPFGMPNLTNSEYHTLMTWLENGAIMNMHTPISDQEQAKINQYETLLNHSDLKNQLMSRYIYEHLFLSHLYFSELSEKPRFFTLVRSATPPGQPVKRISTRRPYDDPGVERVYYRIIPEQGTIVDKTHMPFALNKQRISNWKKWFIEADYSVTQLPSYEPEVAANPMTAFIDMPVKSRFKFMLDNAQNTIMAYIKGPVCRGQLALNVINDRFWVFFLDPDKADIPEVNEFYRSQADNLKLPAEQESNTLPVTNWVKYARQQARYLEAKSEFTNNWFKHGENLSTDVIWDGNGTNPNAALTVFRHFDSASVVQGLVGEQPKTVWILDYALLERIHYLLVAGFDVYGNFGHQLMTRMFMDFLRLEGESNFVTLLPADMRHQLQSSWYQDQSPQLSDFLQRNVKPFNQPTSVVYKTDDPKTELLNMMRKRLSPVLLPRYEITDTALSDKTEKELKRIGQVRGEGLQTVPQITMLMVRSKSGKDELFTLLHNNAHTNISSLFDEESNRDFANDDMTIVRGVVGSYPAAFFSLKENQVKEFVDQFSAIQNEADYVKLLDSFAIRRSSEKFWPFSDRIHNWYRTNQPIEFGLLDYNRFENR,not soluble
8,MDAEEKMGVELSSPSAIMEHARRLYMSKDYRSLESLFGRCLWKSYNLDLWMLYIEYVRKVSQKKFKLFEVYEFTLGQFENYWDSYGLFKEYIEELGKIEDEQTRIEKIRNGYMRALQTPMGSLSELWKDFENFELELNKITGKKIVGDTLPLFQSSFQRYQQIQPLIRGWSVKNAARLIDLEMENGMKLGGRPHESRMHFIHNYILDSFFYAEEVYFFYSEYLIGIGQKEKAKKVVERGIEMSDGMFLSLYYGLVMDEEAVYGDLKRKYSMGEAESAEKVFSKELDLLRINHLNYVLKKRGLELFRKLFIELGNEGVGPHVFIYCAFIEYYATGSRATPYNIFSSGLLKHPDSTLLKEEFFLFLLRIGDEENARALFKRLEKTSRMWDSMIEYEFMVGSMELFRELVDQKMDAIKADAILPPLPPREHNVQMEGILGRYHCFLDSFNFLDLKIRDNSRLLDEFMENLPKISQQNNVLSNLRVEKVISLLKSVQ,soluble
9,MTWPAFSLGVWGYPERMDPRVPPGQFVTERFPILTYGETPKVAKEAWRLEVTGLVETPLVLTYEDLLARPQVELTRDFHCVTRWSRLDVTWKGVRTRDLLEEARPRPEAVAALVESYGGYTTNLLLEDLLREDVLLAHTLFGKPLPPERGGPVRLLVPHLYAWKSAKWVRRIVLLDHLELGFWERLGYHWRGDPWKEERFQEGPVPAHRIRFAARNKPGR,soluble
10,MGHHHHHHSHMEEVLEAAEKIRSMEVRGAARIARFAAETLMKFAEKASDEKFDEEMRFAAETLLNTRPTAVSLYNAINYVMRYSGESVEEKRQSVIRRAREFINWVETAQRKIGEIGEKRIKDGYTVMTHCNSSAALSVIKKAHENGKRVEVIATESRPRWQGHLTVKQLREAGIEVTLIVDSAVRYFINEVDCVVVGADTITANGALINKIGTSQIALAAKEARVPFMVAAETYKFSPKTLFGELVVIEERDAREVAPEEILKLGVKVRNPAFDVTPRDYIDVIITEIGAIPPEMAYIVITERLGYAGIEEEEITLNSRHFD,not soluble
11,MSLGRFQTLDYEIPESMQRSWQDIVNLLAQIADVPTTLIMRVHQNHIEVNTSSDTQGNPYKAGDKEDLGHGLYCEHVIETKSQLVVPDALADEKWSNNPDIKLGMLSYCGLPLFWPNGETFGTICMLDSKANEYSETYRQLLNTFKDSIEAQLAVVYQQYKLLRLNSELKNRVENRTTDLAQLSFSLTQEIDRRKAAERQVNYQKTHDQGTGFLNRAALEAVVEDTLQSLEHGHQSLIVINVGFSNARSIQTRYGFEAFDEILKEFRKRLGMNDSNYFITGRPSSNDLVLLLWGEDADSKLHNLLDKITNISVGNFYINDTEVHLHSYVGVVQAHRSSSAKQLLQNACYAMLLCKESGEAYSYFCESHTHEGHHHHHH,soluble
12,MTEDEWEKQSSFVPVNADPLSPYTEKVKTLAAHRLDFHIRENLRLGVGELTMIGGKYPDLFAVSPFSIWHNNYNEGYTNSMASFDFSWVPKKGFEVHGEFVLDDLVGTTENESKPTAYAFNVGVRRALSTGSLKGVLGVEYALATKFVYNTFLPYLKFNNRIVYLTNLPSSRTIVDYPVGFAFGPDAKLLNVSFDLFKENVSLETDFFYLVKGPNTLYTEYPTAEEGETKTIFGASLRGKIGHVSFSLLFSGSEFLAGLGIEFGF,not soluble
